Measurements reported in publication PMC3817407.
“And” between values parts separate entries of the source, which are not always exact repeats. Identical values can stand only once.

T1: ECF01_3473
T1 chain: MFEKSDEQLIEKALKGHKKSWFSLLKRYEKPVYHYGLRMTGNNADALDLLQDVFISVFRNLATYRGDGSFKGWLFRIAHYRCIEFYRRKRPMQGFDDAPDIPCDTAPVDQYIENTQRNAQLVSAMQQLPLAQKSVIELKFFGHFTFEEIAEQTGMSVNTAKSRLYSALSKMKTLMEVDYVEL

T2: ECF02_2817
T2 chain: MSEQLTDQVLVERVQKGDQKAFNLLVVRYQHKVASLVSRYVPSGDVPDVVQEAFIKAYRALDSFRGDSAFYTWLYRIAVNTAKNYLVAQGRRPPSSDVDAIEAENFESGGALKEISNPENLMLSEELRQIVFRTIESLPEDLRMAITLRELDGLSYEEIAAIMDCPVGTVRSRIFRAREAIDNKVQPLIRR

T3: ECF15_524
T3 chain: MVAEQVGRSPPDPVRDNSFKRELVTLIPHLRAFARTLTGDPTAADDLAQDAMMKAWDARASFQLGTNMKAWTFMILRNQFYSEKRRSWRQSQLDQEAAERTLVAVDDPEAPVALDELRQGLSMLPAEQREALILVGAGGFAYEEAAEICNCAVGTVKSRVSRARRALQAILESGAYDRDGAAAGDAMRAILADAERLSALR

T4: ECF16_3622
T4 chain: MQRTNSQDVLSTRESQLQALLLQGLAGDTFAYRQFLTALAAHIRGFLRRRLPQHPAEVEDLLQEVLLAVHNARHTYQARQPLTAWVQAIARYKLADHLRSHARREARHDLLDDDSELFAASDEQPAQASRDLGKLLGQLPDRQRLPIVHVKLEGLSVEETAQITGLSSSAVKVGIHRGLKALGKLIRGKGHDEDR

T5: ECF17_1458
T5 chain: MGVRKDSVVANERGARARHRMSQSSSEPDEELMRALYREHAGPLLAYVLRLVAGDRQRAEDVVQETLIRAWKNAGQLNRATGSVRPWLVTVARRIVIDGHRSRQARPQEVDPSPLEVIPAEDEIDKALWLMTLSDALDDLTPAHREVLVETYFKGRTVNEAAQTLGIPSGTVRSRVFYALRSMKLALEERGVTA

T6: ECF17_1691
T6 chain: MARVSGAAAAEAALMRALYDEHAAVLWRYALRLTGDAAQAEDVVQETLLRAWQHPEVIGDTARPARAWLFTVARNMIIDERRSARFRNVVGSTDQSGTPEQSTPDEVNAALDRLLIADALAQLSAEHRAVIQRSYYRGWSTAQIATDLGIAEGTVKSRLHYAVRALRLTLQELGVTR

T7: ECF20_992
T7 chain: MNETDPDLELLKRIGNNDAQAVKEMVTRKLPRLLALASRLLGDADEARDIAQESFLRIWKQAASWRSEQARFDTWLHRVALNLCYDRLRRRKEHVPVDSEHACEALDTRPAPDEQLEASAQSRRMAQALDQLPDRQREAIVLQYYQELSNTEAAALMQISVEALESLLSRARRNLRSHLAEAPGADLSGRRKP

T8: ECF22_4450
T8 chain: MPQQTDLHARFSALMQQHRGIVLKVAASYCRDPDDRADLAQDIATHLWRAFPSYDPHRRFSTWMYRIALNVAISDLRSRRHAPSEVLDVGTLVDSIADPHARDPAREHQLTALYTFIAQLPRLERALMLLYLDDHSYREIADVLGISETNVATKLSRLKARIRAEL

T9: ECF25_1643
T9 chain: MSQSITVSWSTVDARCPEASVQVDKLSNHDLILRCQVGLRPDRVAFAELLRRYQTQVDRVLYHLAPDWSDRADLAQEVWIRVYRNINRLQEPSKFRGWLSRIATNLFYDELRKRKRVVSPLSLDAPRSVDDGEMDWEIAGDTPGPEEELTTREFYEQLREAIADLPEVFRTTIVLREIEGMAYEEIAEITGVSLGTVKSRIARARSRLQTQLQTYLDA

T10: ECF25_1645
T10 chain: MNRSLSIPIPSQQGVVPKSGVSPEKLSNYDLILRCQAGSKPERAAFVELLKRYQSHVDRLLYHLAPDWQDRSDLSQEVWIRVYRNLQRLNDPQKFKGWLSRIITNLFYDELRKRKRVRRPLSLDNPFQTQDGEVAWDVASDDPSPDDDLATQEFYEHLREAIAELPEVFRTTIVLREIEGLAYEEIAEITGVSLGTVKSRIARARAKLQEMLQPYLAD

T11: ECF28_1040
T11 chain: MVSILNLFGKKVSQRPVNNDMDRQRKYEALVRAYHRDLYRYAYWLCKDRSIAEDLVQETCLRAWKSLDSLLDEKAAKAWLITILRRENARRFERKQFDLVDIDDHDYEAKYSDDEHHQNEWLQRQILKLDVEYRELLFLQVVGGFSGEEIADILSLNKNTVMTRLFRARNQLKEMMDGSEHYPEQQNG

T12: ECF28_1088
T12 chain: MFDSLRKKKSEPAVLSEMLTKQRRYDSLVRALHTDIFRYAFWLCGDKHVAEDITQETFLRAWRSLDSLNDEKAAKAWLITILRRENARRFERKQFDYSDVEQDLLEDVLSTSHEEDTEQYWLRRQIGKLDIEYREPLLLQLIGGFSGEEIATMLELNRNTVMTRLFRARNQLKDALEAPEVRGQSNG

T13: ECF30_35
T13 chain: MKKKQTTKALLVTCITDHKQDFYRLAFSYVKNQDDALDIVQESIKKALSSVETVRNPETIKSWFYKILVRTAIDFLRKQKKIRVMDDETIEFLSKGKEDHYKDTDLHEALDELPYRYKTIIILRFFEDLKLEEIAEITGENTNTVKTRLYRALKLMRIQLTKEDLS

T14: ECF31_34
T14 chain: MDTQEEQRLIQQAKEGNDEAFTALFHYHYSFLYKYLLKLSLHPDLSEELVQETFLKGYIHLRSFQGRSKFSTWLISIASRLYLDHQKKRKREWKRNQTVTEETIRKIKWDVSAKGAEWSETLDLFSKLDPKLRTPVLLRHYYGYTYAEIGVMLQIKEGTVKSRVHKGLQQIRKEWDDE


What was measured:
ECF01_3473 = target: T1, ECF01_3473
ECF02_2817 = target: T2, ECF02_2817
ECF15_524 = target: T3, ECF15_524
ECF16_3622 = target: T4, ECF16_3622
ECF17_1458 = target: T5, ECF17_1458
ECF17_1691 = target: T6, ECF17_1691
ECF20_992 = target: T7, ECF20_992
ECF22_4450 = target: T8, ECF22_4450
ECF25_1643 = target: T9, ECF25_1643
ECF25_1645 = target: T10, ECF25_1645
ECF28_1040 = target: T11, ECF28_1040
ECF28_1088 = target: T12, ECF28_1088
ECF30_35 = target: T13, ECF30_35
ECF31_34 = target: T14, ECF31_34

Binder | fold repression (ECF01_3473) | fold repression (ECF02_2817) | fold repression (ECF15_524) | fold repression (ECF16_3622) | fold repression (ECF17_1458) | fold repression (ECF17_1691) | fold repression (ECF20_992) | fold repression (ECF22_4450) | fold repression (ECF25_1643) | fold repression (ECF25_1645) | fold repression (ECF26_4464) | fold repression (ECF28_1040) | fold repression (ECF28_1088) | fold repression (ECF30_35) | fold repression (ECF31_34)
AS33_423 (protein) MMAMSNTMPDPREPGDVEALLPWYAAGTLNARDARRVADALDRDPALARQYAVILEEYASTIELNESLGAPSSRAMQKLFAAIDAEPARAPGAGQGLGARFAGFFAGLSPKALAWSASVAGLALLLQAGLIGALLTWPHAAPVQTAAYQPQREVARAPASSPAPATVSPPAAAMADRAADAGKSTPPMVMAERSGGPVVRSLAPQSGPRVLVKFAPEARASEIAALLDQYNAVVVDSSRGGLFRLQFGTQSLSKQDQETLIGRLQKEPVVSVVLSAP | 3.36 | 5.47 | 9.15 | 35.1 | 8.41 | 3.16 | 14.2 | 23.1 | 3.19 and 2.96 | 3.68 | 9.42 | 2.67 | 3.17 | 3.09 | 8.35
AS35_3582 (protein) MNPQKHSASVAEEQMLAHFRAHAPQQPAPALDQAILAAARRQAAHVEPARSWWRRWLEASRRPRWQAAFASLLGVALVLGLVSHNVLDDAERQARPEVAFSDVPLRDGVAGAAAAKRAMRAPAAPAPLSGEMSEPPALLASYASSGEAPQLMAEAAPPAPAALADRPPAQAAQQAKVQAALAGDFVAQARGKAVAVKPEVLDEALGAVLALREQGKTEQAATQLAELQKRFPGENLVERLERLATIAASARKRP | 5.93 | 6.36 | 5.37 | 6.44 | 7.06 | 4.63 | 3.26 | 8.03 | 5.68 and 4.69 | 3.79 | 10.7 | 2.76 | 3.76 | 2.03 | 5.2
AS37_2513 (protein) MSSAPATKEEVDFALKVRRALDERAASLPDATTDRLAAARRAALARKKPDAAIVLVPALAGSAGTLELRPPGEPRKSLARRLARAWPLALLLAGLIGIAYWEDMQRTAELADIDAAMLSDNLPLTAYLDHGFNAYLSHTH | 6.84 | 4.08 | 4.06 | 5.36 | 5.87 | 4.17 | 5.31 | 7.22 | 5.22 and 5.59 | 3.92 | 7.32 | 2.67 | 3.31 | 3.08 | 3.08
AS33_375 (protein) MMALSKKMLEQEPSEIELLLPWHAAGTLNARDARRVEDALARDPELAKQYAAIRGEYEETIHLNESLGAPSARAMQKLFGAIDAEPARETGSLPLSARIATFFASLSPRTLAWSASLGAVALVLQAGIIGAVLMKTQPTTFQTASLSTSAPITRELGAAVAPARALVRFTPEARVADITALLDSYQASIIGDAKGGMFRLQFDKAMSQDELASLLGRMQREKFVNLAVAAP | 5.29 | 5.75 | 14.3 | 22.6 | 11.3 | 3.94 | 20.7 | 31 | 5.97 and 4.93 | 5.35 | 14.1 | 3.33 | 3.72 | 4.68 | 9.28
